According to US20180244785A1 (MERRIMACK PHARMACEUTICALS, published 2018):

T1: 6His-Fc-FGFR4 (human, UniProt P22455 144-369)
T1 construct: not shown: 6His tag and Fc as named in '6His-Fc-FGFR'
T1 sequence: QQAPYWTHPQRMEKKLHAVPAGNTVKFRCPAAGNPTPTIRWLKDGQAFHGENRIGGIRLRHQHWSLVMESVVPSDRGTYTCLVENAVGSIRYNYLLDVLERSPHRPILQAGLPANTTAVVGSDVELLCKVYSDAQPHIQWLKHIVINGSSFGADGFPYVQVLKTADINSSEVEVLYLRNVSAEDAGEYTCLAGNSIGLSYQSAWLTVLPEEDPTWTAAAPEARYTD

T2: 6His-Fc-FGFR1c (human, UniProt P11362 141-376)
T2 construct: not shown: 6His tag and Fc as named in '6His-Fc-FGFR'
T2 sequence: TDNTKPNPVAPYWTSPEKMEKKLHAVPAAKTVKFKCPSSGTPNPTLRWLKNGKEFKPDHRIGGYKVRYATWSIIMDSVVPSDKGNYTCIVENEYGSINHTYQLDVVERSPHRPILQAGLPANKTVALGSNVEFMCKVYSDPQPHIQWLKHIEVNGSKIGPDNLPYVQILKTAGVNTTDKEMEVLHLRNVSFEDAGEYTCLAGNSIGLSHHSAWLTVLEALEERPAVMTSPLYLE

T3: recombinant human FGFR3c Fc fusion (human, UniProt P22607 141-372)
T3 construct: also called FGFR3IIIc; not shown: Fc part of the FGFR-Fc fusion
T3 sequence: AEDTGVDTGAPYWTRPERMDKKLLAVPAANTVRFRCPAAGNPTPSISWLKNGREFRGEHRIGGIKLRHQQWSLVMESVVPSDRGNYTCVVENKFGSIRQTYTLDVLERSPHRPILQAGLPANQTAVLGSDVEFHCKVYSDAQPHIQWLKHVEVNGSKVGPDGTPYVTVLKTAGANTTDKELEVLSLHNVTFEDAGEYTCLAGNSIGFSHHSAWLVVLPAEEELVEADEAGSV

T4: recombinant human FGFR4 Fc fusion (human, UniProt P22455 144-369)
T4 construct: 19 used; also called FGFR4c; not shown: Fc part of the FGFR-Fc fusion
T4 sequence: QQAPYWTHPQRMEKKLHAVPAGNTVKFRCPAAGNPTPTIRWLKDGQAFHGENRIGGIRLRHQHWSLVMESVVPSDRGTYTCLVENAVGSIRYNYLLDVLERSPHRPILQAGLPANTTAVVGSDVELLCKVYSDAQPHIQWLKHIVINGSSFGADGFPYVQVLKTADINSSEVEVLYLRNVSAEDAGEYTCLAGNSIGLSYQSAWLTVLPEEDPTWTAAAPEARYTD

T5: recombinant human FGFR1c Fc fusion (human, UniProt P11362 141-376)
T5 construct: also called FGFR1IIIc; not shown: Fc part of the FGFR-Fc fusion
T5 sequence: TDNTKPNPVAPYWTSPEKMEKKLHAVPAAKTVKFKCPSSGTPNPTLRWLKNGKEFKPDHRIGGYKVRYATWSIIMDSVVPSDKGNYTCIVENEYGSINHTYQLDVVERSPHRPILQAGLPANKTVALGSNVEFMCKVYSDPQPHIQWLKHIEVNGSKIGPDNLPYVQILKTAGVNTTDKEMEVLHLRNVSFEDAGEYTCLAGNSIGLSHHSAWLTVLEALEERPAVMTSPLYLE

T6: soluble FGFR1c receptor protein (human, UniProt P11362 141-376)
T6 sequence: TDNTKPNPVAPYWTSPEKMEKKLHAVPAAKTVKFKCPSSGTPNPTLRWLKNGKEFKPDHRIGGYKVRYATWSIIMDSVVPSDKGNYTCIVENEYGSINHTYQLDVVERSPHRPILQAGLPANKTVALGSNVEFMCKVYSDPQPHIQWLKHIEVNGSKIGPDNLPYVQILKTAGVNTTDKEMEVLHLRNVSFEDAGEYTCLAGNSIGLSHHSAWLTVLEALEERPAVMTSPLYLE

T7: soluble FGFR4 receptor protein (human, UniProt P22455 144-369)
T7 sequence: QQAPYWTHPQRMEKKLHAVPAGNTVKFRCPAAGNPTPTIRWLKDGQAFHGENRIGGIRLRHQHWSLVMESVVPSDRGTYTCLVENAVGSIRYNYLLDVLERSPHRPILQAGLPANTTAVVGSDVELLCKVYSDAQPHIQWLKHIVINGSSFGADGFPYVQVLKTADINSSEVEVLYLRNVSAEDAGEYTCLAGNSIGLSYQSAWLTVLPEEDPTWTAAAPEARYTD

T8: soluble FGFR3c receptor protein (human, UniProt P22607 141-372)
T8 sequence: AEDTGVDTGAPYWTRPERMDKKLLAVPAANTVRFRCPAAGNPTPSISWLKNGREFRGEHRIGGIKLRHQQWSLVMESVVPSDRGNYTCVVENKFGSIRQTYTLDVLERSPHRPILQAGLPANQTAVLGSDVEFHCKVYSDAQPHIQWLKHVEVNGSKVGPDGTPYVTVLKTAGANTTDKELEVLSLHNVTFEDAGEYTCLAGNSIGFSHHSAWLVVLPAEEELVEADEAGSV


Experiments:
[1] = molecular target: T1, 6His-Fc-FGFR4; experiment: competition ELISA, blocks 6His-Fc-FGFR4 binding to coated FGF2
Experimental: (§1) ELISA plates were coated with 50 ug/ml Heparin Sulfate (HSPG) (Sigma Aldrich) and incubated overnight at room temperature. Plates were then washed extensively with PBS containing 0.05% v/v Tween20 (PBST). Plates were then blocked with 2.5% BSA in PBST for one hour and washed extensively as before. 40-60 μL of FGF1 or FGF2 was then added to each well at 40 μg/ml and allowed to bind at room temperature for 2 hours. Plates were then washed extensively with PBST as before. Stock solutions of each 6His-Fc-FGFR (FGFR1-4) were prepared at 500 ng/ml in 2% v/v BSA-PBST and each antibody was prepared as a 2×-dilution series in 2% v/v BSA-PBST. Antibodies dilution series and 6His-Fc-FGFR1-4 were diluted in a 1:1 fashion and immediately added to the relative wells of the plate and allowed to bind for 2 hours at room temperature. Plates were washed extensively as before with PBST and the remaining fraction of bound 6His-Fc-FGFR was detected using a polyclonal-anti-His-6-HRP conjugated antibody (Abcam) for one hour at room temperature. After extensive washing with PBST, 50 μl of Pierce Chemiluminescent substrate (Thermo Fisher Scientific, Rockford, USA) was added and plates were measured on an Envision plate reader (Perkin Elmer). Raw data was background corrected and plotted using Prism software. […]

[2] = molecular target: FGFR1 on tumour cells (UniProt P11362 22-822); experiment: cell-based or functional assay
Sequence of FGFR1 on tumour cells (P11362 22-822): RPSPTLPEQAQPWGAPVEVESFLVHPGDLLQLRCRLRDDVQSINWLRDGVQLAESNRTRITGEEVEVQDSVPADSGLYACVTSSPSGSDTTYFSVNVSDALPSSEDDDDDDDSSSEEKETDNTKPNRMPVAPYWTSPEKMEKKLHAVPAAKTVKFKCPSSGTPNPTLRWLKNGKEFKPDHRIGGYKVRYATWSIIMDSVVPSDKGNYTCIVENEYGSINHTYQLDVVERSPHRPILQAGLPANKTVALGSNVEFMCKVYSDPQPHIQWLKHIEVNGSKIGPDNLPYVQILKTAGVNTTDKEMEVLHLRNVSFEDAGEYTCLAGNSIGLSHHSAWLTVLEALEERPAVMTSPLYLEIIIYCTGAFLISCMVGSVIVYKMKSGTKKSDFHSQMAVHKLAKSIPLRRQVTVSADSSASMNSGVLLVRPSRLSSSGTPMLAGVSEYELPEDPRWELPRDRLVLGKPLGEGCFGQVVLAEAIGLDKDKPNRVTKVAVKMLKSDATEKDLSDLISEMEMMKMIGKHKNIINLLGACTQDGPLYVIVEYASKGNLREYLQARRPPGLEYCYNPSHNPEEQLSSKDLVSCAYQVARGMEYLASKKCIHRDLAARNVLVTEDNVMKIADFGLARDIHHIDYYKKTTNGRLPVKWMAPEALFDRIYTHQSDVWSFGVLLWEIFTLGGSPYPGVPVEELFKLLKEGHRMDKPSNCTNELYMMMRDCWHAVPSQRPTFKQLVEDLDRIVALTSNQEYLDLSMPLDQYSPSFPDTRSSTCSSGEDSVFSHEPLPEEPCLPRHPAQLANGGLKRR

[3] = molecular target: T2, 6His-Fc-FGFR1c; experiment: competition ELISA, blocks 6His-Fc-FGFR1c binding to coated FGF2
Experimental: as §1

[4] = molecular target: T9, recombinant human FGFR2c Fc fusion (human, UniProt P21802 148-377); experiment: solid phase ELISA on coated FGFR-Fc
T9 construct: also called FGFR2IIIc; not shown: Fc part of the FGFR-Fc fusion
T9 sequence (P21802 148-377): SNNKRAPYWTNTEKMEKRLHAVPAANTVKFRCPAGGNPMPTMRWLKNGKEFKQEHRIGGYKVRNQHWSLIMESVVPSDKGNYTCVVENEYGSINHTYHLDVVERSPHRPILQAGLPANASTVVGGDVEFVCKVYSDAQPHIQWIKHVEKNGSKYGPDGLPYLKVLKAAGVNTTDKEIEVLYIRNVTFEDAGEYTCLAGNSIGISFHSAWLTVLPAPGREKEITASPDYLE
Experimental: (§2) For the ELISA assay, the ability of each mAb to cross react with the […] FGF receptors was tested across a concentration curve in order to determine the relative binding across FGFR1-4. FGFR2IIIb was used as a negative control. Black 384-well Maxisorp plates were coated overnight with FGFR-Fc fusions in PBS to 1 ug/ml before washing and blocking with 75 ul/well Pierce Protein Free (PBS) Blocking Buffer for 1 hour at RT. Antibody dilutions were prepared freshly in 1% BSA- PBS+0.05% Tween20 and 25 ul of each antibody was added to wells in duplicate. Plates were incubated at RT for 2 hours, followed by addition of detection antibody at 50 ng/ml in 1% BSA PBS, 0.05% Tween20. ECL substrate (Pierce) was added and plates were read on the EnVision plate reader.

[5] = molecular target: T3, recombinant human FGFR3c Fc fusion; experiment: solid phase ELISA on coated FGFR-Fc
Experimental: as §2

[6] = molecular target: T4, recombinant human FGFR4 Fc fusion; experiment: solid phase ELISA on coated FGFR-Fc
Experimental: as §2

[7] = molecular target: T5, recombinant human FGFR1c Fc fusion; experiment: solid phase ELISA on coated FGFR-Fc
Experimental: as §2

[8] = molecular target: soluble FGFR2c receptor protein (human, UniProt P21802 148-377); experiment: BLI Octet RED96, antibody on anti-hIgG Fc tip
Sequence of soluble FGFR2c receptor protein (P21802 148-377): as above
Experimental: (§3) Briefly, the Pall ForteBio Octet RED96 Bio-Layer Interferometry system was used to determine the specificity of anti-FGFR antibodies for FGFR1c, FGFR2c, FGFR3c, and FGFR4. The antibodies and soluble receptor proteins were prepared in PBS at a concentration of 300 nM. First, the candidate antibodies were immobilized on the surface of anti-human IgG Fc biosensor tips for 120 seconds. After immobilization, the biosensors were dipped in PBS solution for 60 seconds (baseline step) to assess assay drift, and determine loading level of antibodies. The baseline step was followed by an association step of 300 seconds wherein the binding interaction between the immobilized antibodies and soluble receptors was measured. Following the association step, the biosensors were dipped into PBS buffer for 600 seconds to measure the dissociation of the bound receptor proteins from the immobilized antibodies. Each binding response was measured and reported real time on a sensorgram trace. For data analysis, a simple 1:1 binding model was used which measures the rate of complex formation of one immobilized antibody and one soluble receptor protein.

[9] = molecular target: T6, soluble FGFR1c receptor protein; experiment: BLI Octet RED96, antibody on anti-hIgG Fc tip
Experimental: as §3

[10] = molecular target: T7, soluble FGFR4 receptor protein; experiment: BLI Octet RED96, antibody on anti-hIgG Fc tip
Experimental: as §3

[11] = molecular target: T8, soluble FGFR3c receptor protein; experiment: BLI Octet RED96, antibody on anti-hIgG Fc tip
Experimental: as §3

IC50 [1]	IC50 of pERK inhibition (AlphaScreen SureFire) in NCI-H1581 cells [2]	IC50 [3]	EC50 [4]	EC50 [5]	EC50 [6]	EC50 [7]	Kd [8]	koff [8]	kon [8]	Kd [9]	koff [9]	kon [9]	Kd [10]	koff [10]	kon [10]	Kd [11]	koff [11]	kon [11]	Binder
14.3 nM	4.83 nM	5.23 nM																	Ab34 (antibody, human IgG2, kappa, V domains shown, format in the assays not spelled out) VH: EVQLLESGGGVVQPGRSLRLSCAASGFTFSSYAMHWVRQAPGKGLEWVAVISYDGSNKYYADSVKGRFTISRDNSKNTLSLQMNSLRVEDTAIYYCVRGAGRGYTRGPDGFDIWGQGTMVTVSS VL: DIVMTQTPLSLSVTPGQPASISCTSSRSLLHSDGKTYVYWYVQKSGQPPQLLIYELSNRFSGVPDRFSGSGSRTDFTLKISRVEAEDVGVYYCMQYVEAPLTFGGGTKVEIKR
22.2 nM	2.72 nM	5.21 nM																	Ab31 (antibody, human IgG2, kappa, V domains shown, format in the assays not spelled out) VH: EVQLLESGGGVVQPGRSLRLSCAASGFTFSSYAMHWVRQAPGKGLEWVAVISYDGSNKYYADSVKGRFTISRDNSKNTLSLQMNSLRVEDTAIYYCVRGAGRGLTYGPDGFDIWGQGTMVTVSS VL: DIVMTQTPLSLSVTPGQPASISCTSSRSLLHSDGKTYVYWYVQKSGQPPQLLIYELSNRFSGVPDRFSGSGSRTDFTLKISRVEAEDVGVYYCMQYVEAPLTFGGGTKVEIKR
~7.32 nM	0.385 nM	3.83 nM	0.0224 nM	0.0687 nM	0.31 nM	11.7 pM	6.93 nM	0.00188 s⁻¹	254000 M⁻¹ s⁻¹	14.5 nM	0.00165 s⁻¹	111000 M⁻¹ s⁻¹	12.5 nM	0.00169 s⁻¹	117000 M⁻¹ s⁻¹	15.4 nM	0.00239 s⁻¹	154000 M⁻¹ s⁻¹	Ab60 (antibody, human IgG2, kappa, V domains shown, format in the assays not spelled out) VH: EVQLLESGGGVVQPGRSLRLSCAASGFDFAGYAMHWVRQAPGKGLEWVAVISYDGSNKYYADSVKGRFTISRDNSKNTLSLQMNSLRVEDTAIYYCVRGAGRGLTYGPDGFDIWGQGTMVTVSS VL: DIVMTQTPLSLSVTPGQPASISCTSSRSLLHSDGKTYVYWYVQKSGQPPQLLIYELSNRFSGVPDRFSGSGSRTDFTLKISRVEAEDVGVYYCMQYIEAPLTFGGGTKVEIKR
11.8 nM	1.01 nM	2.03 nM	0.0127 nM	0.0745 nM	38.2 nM	6.74 pM	6.61 nM	0.00167 s⁻¹	252000 M⁻¹ s⁻¹	8.85 nM	0.000967 s⁻¹	91600 M⁻¹ s⁻¹	8.63 nM	0.0012 s⁻¹	125000 M⁻¹ s⁻¹	6.29 nM	0.000983 s⁻¹	151000 M⁻¹ s⁻¹	Ab19 (antibody, human IgG2, kappa, V domains shown, format in the assays not spelled out) VH: EVQLLESGGGVVQPGRSLRLSCAASGFTFSSYAMHWVRQAPGKGLEWVAVISYDGSNKYYADSVKGRFTISRDNSKNTLSLQMNSLRVEDTAIYYCVRGAGRGFTLGPDGFDIWGQGTMVTVSS VL: DIVMTQTPLSLSVTPGQPASISCKSSRSLLHSDGKTYVYWYVQKSGQPPQLLIYELSNRFSGVPDRFSGSGSRTDFTLKISRVEAEDVGVYYCMQYIEAPLTFGGGTKVEIKR
